Laboratory results reported in the nanobody polyreactivity screen of Harvey et al. (2022).

Test: yeast display, Sf9 membrane polyspecificity reagent, FACS + sequencing; frameworks hold sequencing errors
How it was run: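 Galactose-induced (36–48 hours) yeast carrying a synthetic nanobody display library were exposed to 10% biotinylated, detergent-solubilized Sf9 membrane reagent at 4 °C for 1 hour. FACS followed streptavidin microbead enrichment, using low and high (top ~1%) gates for expression (anti-HA) and reagent binding (streptavidin). Colony PCR, MiSeq 2 × 250 sequencing and CDR-length filtering followed. Labels for polyreactivity reflect the gate of origin.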
With “QVQLVESGGGLVQAGGSLRLSCAASGRIFYNYAMGWYRQAPGKERELVAAISSSGGSTYYADSVKGRFTISRDNAKNTVYLQMNSLKPEDTAVYYCAVRKQYSGRYYRAYDYWGQGTQVTVSS” the “polyreactivity (PSR sort gate)” value was “high polyreactivity”.
In the case of “QVQLVESGGGLVQAGGSLRLSCAASGRIFYPNAMGWYRQAPGKERELVAAISKRGGRTYYADSVKGRFTISRDNAKNTVYLQMNSLNPEDTAVYYCATRWASYPRTGRYDYWGQGTQVTVSS”, the “polyreactivity (PSR sort gate)” value is reported as “high polyreactivity”.
In the case of “QVQLVESGGGLVQAGGSLRLSCAASGRIFYPNDLGWYRQAPGKERELVAAITRDGSTNYADSVKGRFTISRDNAKNTVYLQMNSLKPEDTAVYYCAADISDWYIIRRMNYWGQGTQVTVSS”, the “polyreactivity (PSR sort gate)” value is reported as “low polyreactivity”.
With “QVQLVESGGGLVQAGGSLRLSCAASGRIFYPYAMGWYRQAPGKERELVAAIRRSGVDTYYADSVKGRFTISRDNAKNTVYFQMNSLKPEDTAVYYCAADPYWFFPHYDSWGQGTQVTVSS” the “polyreactivity (PSR sort gate)” value was “low polyreactivity”.
For “QVQLVESGGGLVQAGGSLRLSCAASGRIFYPYAMGWYRQAPGKERELVASITWRGGSTYYADSVKGRFTISRDNAKNTVYLQMNSLKPEDTAVYYCAAVPYSYTYVYLSHYDYWGQGTQVTVSS”, the “polyreactivity (PSR sort gate)” value was “low polyreactivity”.
In the case of “QVQLVESGGGLVQAGGSLRLSCAASGRIFYPYAMGWYRQAPGKERELVAVISYSGGGTYYADSVKWRFTISRDNAKNTVYLQMNRMKPEDTAVYYCAAYADYSYYVYDYWGQGTQVTVSS”, the “polyreactivity (PSR sort gate)” value is reported as “high polyreactivity”.
For “QVQLVESGGGLVQAGGSLRLSCAASGRIFYQNAMGWYRQAPGKERELVADISSGGSTYYADSVKGRFTISRDNAKNTVYLQMNSLKPEDTAVYYCNTPSGPGTVGSYRRKWYGYWGQGTQVTVSS”, the “polyreactivity (PSR sort gate)” value was “low polyreactivity”.
For “QVQLVESGGGLVQAGGSLRLSCAASGRIFYQYAMGWYRQAPGKERELVAAITRGGNTYYADSVKGRFTISRDNAKNTVYLQMNSLKPEDTAVYYCNARWHTTGYRYDYWGQGTQVTVSS”, the “polyreactivity (PSR sort gate)” value was “high polyreactivity”.
In the case of “QVQLVESGGGLVQAGGSLRLSCAASGRIFYRNAMGWYRPAPGKERELVASITSAGRTYYADSVKGRFTISRDNAKNTVYLQMNSLKPEDTAVYYCAVRVAVLLNLYGYWGQGTQVTVSS”, the “polyreactivity (PSR sort gate)” value is reported as “low polyreactivity”.
In the case of “QVQLVESGGGLVQAGGSLRLSCAASGRIFYRNGMGWYRQAPGKERELVAAISYSGGRTYYADSVKGRFTISRYNAKNTVYLQMNSLKPEDTAVYYCAAQWFEDFLYPWLEYDYWGQGTQVTVSS”, the “polyreactivity (PSR sort gate)” value is reported as “high polyreactivity”.
In the case of “QVQLVESGGGLVQAGGSLRLSCAASGRIFYRYAMGWYRPAPGKERELVAAIRYSGGRTYYADSVKGRFTISRDNAKNTVYLQMISLKPEDTAVYYCAADGQWYYAPFRGGDYENDYWGQGTQVTVSS”, the “polyreactivity (PSR sort gate)” value is reported as “low polyreactivity”.
With “QVQLVESGGGLVQAGGSLRLSCAASGRIFYRYAMGWYRQAPGKERELVAAITGSGGSTYYADSVKGRFTISRDNAKNTVYLQMNSLKPEDTAVYYCNAVYARYGSQGYEYWGHGTQVTVSS” the “polyreactivity (PSR sort gate)” value was “high polyreactivity”.
With “QVQLVESGGGLVQAGGSLRLSCAASGRIFYRYAMGWYRQAPGKERELVATITSGGGTHYADSVKGRFTISRDNAKNTVYLQMNSLKPEDTAVYYCAAVQWYGYPYYSWGQGTQVTVSS” the “polyreactivity (PSR sort gate)” value was “low polyreactivity”.
For “QVQLVESGGGLVQAGGSLRLSCAASGRIFYRYTMGRYRQAPGKERELVAAITSSSGSTYYADSVKGRFTISRDNAKNTVYLQMNSLKPEDTAVYYCAARIYHDIDTRSYYWGQGTQVTVSS”, the “polyreactivity (PSR sort gate)” value was “high polyreactivity”.
With “QVQLVESGGGLVQAGGSLRLSCAASGRIFYRYTMGWYRQAPGKERELVAAITRSGSSTRYADSVKGRFTISRDYAKNTVYLQMNSLKPEDTAVYYCATRVTSRTSGFDYWGQGTQVTVSS” the “polyreactivity (PSR sort gate)” value was “high polyreactivity”.
With “QVQLVESGGGLVQAGGSLRLSCAASGRIFYRYVMGWYRQAPGKERELVAAISRGGGTNYADSVKGRFTISRDNAKNTVYLQMNSLKPEDTAVYYCAARGSPGAGYYWGQGTQVTVSS” the “polyreactivity (PSR sort gate)” value was “high polyreactivity”.
For “QVQLVESGGGLVQAGGSLRLSCAASGRIFYSIAMGWYRQAPGKERELVAAISRSGVRTYYADSVKGRFTISRDNAKNTVYLQMNSLKPEDTAVYYCAAVIYGTTPQDEYDYWGQGTQVTVSS”, the “polyreactivity (PSR sort gate)” value was “low polyreactivity”.
With “QVQLVESGGGLVQAGGSLRLSCAASGRIFYSYAMGWYRQAPGKERELVAAITDSGGSTYADSVKGRFTISRDNAKNTVYLQMNSLKPEDTAVYADSTYNWYYYYWGQGTQVTVSS” the “polyreactivity (PSR sort gate)” value was “low polyreactivity”.
For “QVQLVESGGGLVQAGGSLRLSCAASGRIFYSYAMGWYRQAPGKERELVATISSAGSTYYADAVKGRFTISRDNAKNTVYLQMNSLKPEDTAVYYCAARRPRRYGYWGQGTQVTVSS”, the “polyreactivity (PSR sort gate)” value was “high polyreactivity”.
For “QVQLVESGGGLVQAGGSLRLSCAASGRIFYTNAMGWYRPAPGKERELVAAITRSGGRTYYADSVKGRFTISRDNAKNTVYLQMNSLKPEDTGVYYCAKVGYGHTGMGYWGQGTQVTVSS”, the “polyreactivity (PSR sort gate)” value was “high polyreactivity”.
In the case of “QVQLVESGGGLVQAGGSLRLSCAASGRIFYVNAMGWYRQAPGKERELVAGIDDGVTTYYAVSVKGRFTSSRDNAKNTVYLQMNSLKPEDTAVYYCAKETLVILIYDYWGQGTQVTVSS”, the “polyreactivity (PSR sort gate)” value is reported as “low polyreactivity”.
For “QVQLVESGGGLVQAGGSLRLSCAASGRIFYVYAMGWYRQAPGKEMELVATITSSGEGTYYADSVMGRFTISRDNAKNTVYLQMNSLKPEDTAVYYCARRYFVRFVHPPYYYWGQGTQVTVSS”, the “polyreactivity (PSR sort gate)” value was “low polyreactivity”.
With “QVQLVESGGGLVQAGGSLRLSCAASGRIFYVYAMGWYRQAPGKEREFVAAITRRSGSTYYADSVKGRFTISRDNAKNTVYFQMKSVKPEDTAVYSCNARLKYAIPQVPPYDYWGQGTQVTVSS” the “polyreactivity (PSR sort gate)” value was “high polyreactivity”.
With “QVQLVESGGGLVQAGGSLRLSCAASGRIFYVYAMGWYRQAPGKERELVAAITQSGGRTYYADSVKGRFTISRDNAKNTVYLQMNSLKPEDTAVYYCAATWLGSRNLVHITLYYWGQGTQVTVSS” the “polyreactivity (PSR sort gate)” value was “low polyreactivity”.
In the case of “QVQLVESGGGLVQAGGSLRLSCAASGRIFYVYAMGWYRQAPGKERELVAAITSGGRTDYADSVKGRFTISRDNAKNTVYLQMNSLKPEDTAVYYCAVRGSYRGWYDYWGQGTQVTVSS”, the “polyreactivity (PSR sort gate)” value is reported as “high polyreactivity”.
For “QVQLVESGGGLVQAGGSLRLSCAASGRIFYVYAMGWYRQAPGKERELVAAITWRGGTTYYADSVKGRFTISRDNAKNTVYLQMNSLKPEDTAVYYCNAKYFRSYYSIEYDYWGQGTQVTVSS”, the “polyreactivity (PSR sort gate)” value was “low polyreactivity”.
With “QVQLVESGGGLVQAGGSLRLSCAASGRIFYVYAMGWYRQAPGKERELVPAITSSGGSTYYADSVKGRFTISRDTAKNTVYLQMNSLKPEDTAVYYCAARERAGYSRIRYNYWGQGTQVTVSS” the “polyreactivity (PSR sort gate)” value was “high polyreactivity”.
In the case of “QVQLVESGGGLVQAGGSLRLSCAASGRIFYWNAMGWYRQAPGKERELVAAITYSTGSTYYADSVKGRFTISRDNAKNTVYLQMNSLKPEDTAVYYCAAEGPRGSWWALYDYWGQGTQVTVSS”, the “polyreactivity (PSR sort gate)” value is reported as “low polyreactivity”.
In the case of “QVQLVESGGGLVQAGGSLRLSCAASGRIFYWNAMGWYRQEPGKEREFVAAIRLSSGSTYYADSVKGRFTISRDNAKYTVYLQLNSLKPVDTAVYYCATRTYTYWGGSYPHFYWGQGTQVTVSS”, the “polyreactivity (PSR sort gate)” value is reported as “high polyreactivity”.
With “QVQLVESGGGLVQAGGSLRLSCAASGRIFYYAMGWYRQAPGKERELVASITWSGGSTYYADSVKGRFTISRDNAKNTVYLQMNSLKPEDTAVYYCNADDLYTWYVVYNYWGQGTQVTVSS” the “polyreactivity (PSR sort gate)” value was “low polyreactivity”.
